Results taken from patent US20090232801A1 (ABBOT LABORATORIES, published 2009).
Each block holds one binder with its values, some of them ahead of it.

Experiments:
Aβ(1-40) monomer = target: T1, Aβ(1-40) monomer (human); assay: dot blot, 10 pmol antigen on nitrocellulose, 0.2 µg/ml antibody, densitometry
T1 construct: Human Aβ(1-40), Bachem H-1194, HFIP treated and dissolved in DMSO; also called Aβ40
Description: (§1) The dot blot was developed with a development solution made from 1 tablet of NBT/BCIP (Roche) dissolved in 20 mL H₂O for 5 min. The development was stopped by intense washing of the dot blot with H₂O. Quantitative evaluation was done using a densitometric analysis (GS800 densitometer (BioRad) and software package Quantity one, Version 4.5.0 (BioRad)) of the dot-intensity. Only the dots for 10 pmol Aβ antigen were evaluated. Results for the Discrimination of Aβ Monomer Against Aβ Globulomer by Dot Blot Method: Comparison of 8F5hum8 Versus 4G8.
(§2) The humanized monoclonal antibody 8F5hum8 (0.2 μg/ml) were used for detection with an anti-human IgG coupled to alkaline phosphatase as secondary antibody and the staining reagent NBT/BCIP (Roche Diagnostics, Mannheim). The detection signal was analyzed in its intensity (reflective density=RD) via a densitometer (GS 800, Biorad, Hercules, Calif., USA) at an antigen concentration of 10 pmol. At this concentration for every Aβ-form, the measured reflective density was in the linear range of the densitometer detection.

Aβ(1-42) globulomer [1] = target: T2, Aβ(1-42) globulomer (human); assay: as above
T2 construct: the definition mentions n=12-14 for late assembly forms; also called human A-beta oligomer antigen (1-42); Aβ(1-42) globular oligomer
Description: as §1, §2

[2] = target: T3, Aβ(1-42) monomer, HFIP pretreated (human); assay: as above
T3 construct: Human Aβ(1-42), Bachem H-1368, monomer preparation in Pluronic F68 buffer; also called Aβ42 monomer
Description: as §1, §2

Aβ(1-42) globulomer [3] = target: T2, Aβ(1-42) globulomer; assay: dot blot densitometry; reference: Aβ(1-42) monomer
Description: as §1, §2
(§3) Discrimination of anti-Aβ-antibodies of Aβ1-40 monomer and Aβ1-42 monomer. The discrimination was calculated as the ratio of detection signal of Aβ1-42 globulomer and Aβ1-42 monomer, respectively Aβ1-40 monomer.

Aβ(1-42) globulomer [4] = target: T2, Aβ(1-42) globulomer; assay: dot blot densitometry; reference: Aβ(1-40) monomer
Description: as §1, §2, §3

Aβ(1-42) globulomer [5] = target: T2, Aβ(1-42) globulomer; assay: competition ELISA, Expt. 1: unlabelled antibody against biotinylated Mu8F5 (1.0 µg/ml) on coated human A-beta oligomer antigen (1-42)
Description: (§4) MaxiSorp ELISA plates (Nalge Nunc International) were coated overnight at 4° C. with 100 μl/well of 5.0 μg/ml human A-beta oligomer antigen (1-42) (Abbott Biosciences Corporation, Worcester, Mass.) in PBS, washed with Wash Buffer (PBS containing 0.1% Tween 20), and blocked for 1 hr at room temperature with 340 μl/well of SuperBlock Blocking Buffer in PBS (Pierce Chemical Company). After washing with Wash Buffer, a mixture of biotinylated Mu8F5 (1.0 μg/ml final concentration) and competitor antibody (Mu8F5 or Hu8F5 starting at 27 μg/ml final concentration and serially diluted 3-fold) in 100 μl/well of 5% Superblock Blocking Buffer in PBS was added in triplicate. As a no-competitor control, 100 μl/well of 5% Superblock Blocking Buffer in PBS was used. After incubating the plates for 2 hrs at room temperature, and washing with Wash Buffer, bound antibodies were detected using 100 μl/well of 1 μg/ml HRP-conjugated streptavidin (Pierce Chemical Company) in 5% Superblock Blocking Buffer in PBS. After incubating for 30 min at room temperature, and washing with Wash Buffer, color development was performed by adding 100 μl/well of ABTS Peroxidase Substrate/Peroxidase Solution B (KPL). […] Absorbance was read at 415 nm.
(§5) The affinity of Hu8F5 to human A-beta oligomer antigen (1-42) was analyzed by competition ELISA as described in Materials and Methods. […]

Aβ(1-42) globulomer [6] = target: T2, Aβ(1-42) globulomer; assay: competition ELISA, Expt. 2: unlabelled antibody against biotinylated Mu8F5 on coated human A-beta oligomer antigen (1-42)
Description: as §4, §5

Aβ(1-42) globulomer [7] = target: T2, Aβ(1-42) globulomer; assay: competition ELISA, Expt. 3: unlabelled antibody against biotinylated Mu8F5 on coated human A-beta oligomer antigen (1-42)
Description: as §4, §5

Aβ(1-42) globulomer [8] = target: T2, Aβ(1-42) globulomer; assay: competition ELISA, average of 3 experiments: unlabelled antibody against biotinylated Mu8F5 on coated human A-beta oligomer antigen (1-42)
Description: as §4, §5

Aβ(1-42) globulomer [9] = target: T2, Aβ(1-42) globulomer; assay: competition ELISA, Expt. 1: competitor against biotinylated Mu8F5 on coated human A-beta oligomer antigen (1-42)
Description: as §4, §5

Aβ(1-42) globulomer [10] = target: T2, Aβ(1-42) globulomer; assay: competition ELISA, average of 3 experiments: competitor against biotinylated Mu8F5 on coated human A-beta oligomer antigen (1-42)
Description: as §4, §5

Aβ(1-42) globulomer [11] = target: T2, Aβ(1-42) globulomer; assay: competition ELISA, Expt. 3: competitor against biotinylated Mu8F5 on coated human A-beta oligomer antigen (1-42)
Description: as §4, §5

Aβ(1-42) globulomer [12] = target: T2, Aβ(1-42) globulomer; assay: competition ELISA, Expt. 2: competitor against biotinylated Mu8F5 on coated human A-beta oligomer antigen (1-42)
Description: as §4, §5

T2 sequence (peptide, as listed by the source): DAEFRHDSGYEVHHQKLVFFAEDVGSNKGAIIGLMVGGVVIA
T1 sequence (peptide, as listed by the source): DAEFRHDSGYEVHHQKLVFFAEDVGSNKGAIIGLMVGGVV

B2: murine monoclonal antibody 8F5 (antibody, V domains shown)
VH: EVQLVESGGGLVQPGGSLKLSCAASGFTFSSYGMSWVRQTPDKRLELVASINSNGGSTYYPDSVKGRFTISRDNAKNTLYLQMSSLKSEDTAMYYCASGDYWGQGSTLTVSS
VL: DVVMTQTPLSLPVSLGDQASISCRSSQSLVYSNGDTYLHWYLQKPGQSPKLLIYKVSNRFSGVPDRFSGSGSGTDFTLKISRVEAEDLGVYFCSQSTHVPWTFGGGTKLEIK
notes: Mouse monoclonal antibody; also called Mu8F5; mouse 8F5 antibody
IC50 (Aβ(1-42) globulomer [5]): 4.58 µg/mL
IC50 (Aβ(1-42) globulomer [6]): 4.87 µg/mL
IC50 (Aβ(1-42) globulomer [7]): 5.81 µg/mL
IC50 (Aβ(1-42) globulomer [8]): 5.08 µg/mL

B3: Hu8F5v1 (humanized 8F5, heavy chain version 1) (antibody, V domains shown)
VH: EVQLVESGGGLVQPGGSLRLSCAASGFTFSSYGMSWVRQAPGKGLEWVASINSNGGSTYYPDSVKGRFTISRDNAKNTLYLQMNSLRAEDTAVYYCASGDYWGQGTLVTVSS
VL: DIVMTQSPLSLPVTPGEPASISCRSSQSLVYSNGDTYLHWYLQKPGQSPKLLIYKVSNRFSGVPDRFSGSGSGTDFTLKISRVEAEDVGVYYCSQSTHVPWTFGGGTKVEIK
notes: Human IgG1/kappa, expressed in 293T/17 cells from modified pVg1.D.Tt (gamma-1 changed to z, non-a allotype: D356E, L358M, EU index) and pVk; also called Hu8F5VHv1 + Hu8F5VL
IC50 (Aβ(1-42) globulomer [9]): 6.28 µg/mL
IC50 (Aβ(1-42) globulomer [10]): 6.36 µg/mL
IC50 (Aβ(1-42) globulomer [11]): 5.93 µg/mL
IC50 (Aβ(1-42) globulomer [12]): 6.85 µg/mL

More lines, now with the values ahead:

Reflective Density (RD) [10 pmol] (Aβ(1-40) monomer): 0.04 RD
Reflective Density (RD) [10 pmol] (Aβ(1-42) globulomer [1]): 2.2 RD
Reflective Density (RD) [10 pmol] [2]: 1.3 RD
Ratio RD Aβ(1-42) globulomer/RD Aβ(1-42) monomer (Aβ(1-42) globulomer [3]): 1.6
Ratio RD Aβ(1-42) globulomer/RD Aβ(1-40) monomer (Aβ(1-42) globulomer [4]): 59
B1: humanized monoclonal antibody 8F5hum8 (antibody, V domains shown)
VH: EVQLVESGGGLVQPGGSLRLSCAASGFTFSSYGMSWVRQAPGKGLELVASINSNGGSTYYPDSVKGRFTISRDNAKNTLYLQMNSLRAEDTAVYYCASGDYWGQGTLVTVSS
VL: DIVMTQSPLSLPVTPGEPASISCRSSQSLVYSNGDTYLHWYLQKPGQSPKLLIYKVSNRFSGVPDRFSGSGSGTDFTLKISRVEAEDVGVYYCSQSTHVPWTFGGGTKVEIKR
notes: It was detected with anti-human IgG; also called humanized antibody 8F5; mMAb 8F5hum8

IC50 (Aβ(1-42) globulomer [9]): 6.29 µg/mL
IC50 (Aβ(1-42) globulomer [10]): 6.99 µg/mL
IC50 (Aβ(1-42) globulomer [11]): 6.56 µg/mL
IC50 (Aβ(1-42) globulomer [12]): 8.12 µg/mL
B4: Hu8F5v2 (humanized 8F5, heavy chain version 2) (antibody, human IgG1, V domains shown)
VH: EVQLVESGGGLVQPGGSLRLSCAASGFTFSSYGMSWVRQAPGKGLELVASINSNGGSTYYPDSVKGRFTISRDNAKNTLYLQMNSLRAEDTAVYYCASGDYWGQGTLVTVSS
VL: DIVMTQSPLSLPVTPGEPASISCRSSQSLVYSNGDTYLHWYLQKPGQSPKLLIYKVSNRFSGVPDRFSGSGSGTDFTLKISRVEAEDVGVYYCSQSTHVPWTFGGGTKVEIK
notes: Human IgG1/kappa, as for Hu8F5v1; The heavy chain differs from version 1 by the additional mouse residue at position 47 (W47L mutation of the Hu8F5VH gene); also called Hu8F5VHv2 + Hu8F5VL
